Measurements taken from patent US12329806B2, “Compound for modulating rlr, tlr, oas and/or oncostatin m pathways, use thereof for preparing a medicine, composition, method for modulating said pathways and method of treatment” (Instituto Butantan, priority 2018, dated 2025).

Tested on: Equine melanoma tumors
Experiment: RNA-Seq transcriptomic analysis (DEGs, EdgeR) of treated equine melanoma tumors excised 6 h and 12 h after injection
Type: in vivo, Equus caballus
Settings: for SELE expression, average / SELE expression, median: RNA-Seq
Experimental: Equine melanoma tumors were used in experiments with the administration of the compound of the invention, for transcriptomic analysis at different points in time. This translational experiment was carried out at Sao Joaquim Farm (SP) and the samples were transported to the Instituto Butantan, in the city of Sao Paulo. The experiment was designed with non-treated control samples at 0 h (PBS) and the treated tumors were excised 6 h and 12 h after the injection of 1 mg of polypeptide per kg of tumor. For each time point, two tumors were removed from three different animals, producing six tumors per time point. All 18 cDNA libraries were prepared following Illumina's TruSeq® RNA Preparation Kit Kits v2 protocol, and then sequenced using HiSeq 1500 Illumina technology, generating 2×100 bp chain-specific paired readings. The raw sequencing readings had the contaminants removed with bowtie2 2.2.5, and then trimmomatic was used for quality control of the sequences, to cut and remove readings with regions of low complexity and enriched with homopolymers, poly-A/T/N tails, low quality adapter strings and bases, with the fastq-mcf 1.04.662 software. The readings were filtered if more than 90% of the readings correspond to regions of homopolymer or of low complexity. Subsequently, cut if the average quality score was less than 25 in a window size equal to 15. After cutting, all readings less than 40 bp were discarded.
Total RNA was isolated from cells grown with Trizol (Ambion, Life Technologies) and purified with a Mini RNAspin kit (GE Healthcare) according to the manufacturer's instructions, with prolonged treatment with DNase I for 1 h.
RNA quality was assessed with an Agilent 2100 Bioanalyzer RNA Pico assay. RNA was quantified using the Rib-Green Quant-iT and RNA reagent kit (Invitrogen, Life Technologies). The messenger RNA (mRNA) was isolated and used to prepare the complementary DNA (cDNA) libraries following the instructions of the TruSeq RNA Sample Prep Kit V2 (Illumina, San Diego, Calif.). Briefly, the mRNA was isolated with oligo-dT and purified. Then, the mRNA was fragmented by heating to 94° C. (4 min) in fragmentation buffer. The double-stranded cDNA was synthesized, repaired at the end and tail A. The sequencing adapters were then attached to the cDNA fragments, according to the manufacturer's protocol. The cDNA fragments were enriched after 15 rounds of PCR amplification. The quality control of the library was assessed by size distribution of the cDNA libraries measured using 2100 Bioanalyzer with DNA1000 assay (Agilent Technologies) and a StepOnePlus real-time PCR system from ABI were used to quantify the sample library before sequencing. The cDNA library was sequenced on the Illumina HiSeq 1500 System, in a final flow cell paired with Rapid in a 200 pair strategy of 2-101 bp pairing strategy.
The in-silico analysis of RNA-Seq comprises several quality steps and transcriptomic quantification algorithms that are understood in the present invention as “pipeline”. (FIG. 19). The quality check was performed using FastQC3. Hisat214 was used to align readings against the horse's reference genome (Equus caballus) (annotation version 89). To map and quantify transcriptions, the feature Counts was used, resulting in a table of genetic IDs versus samples with raw reading counts. Then, differentially expressed genes (DEGs) were calculated using the EdgeR package. Genes with less than one count per million (CPM) were filtered out. The DEGs were calculated by crossing the sample values of a) 6 h after treatment (6 h)×control (0 h); b) 12 h after treatment (12 h)×control; and also, c) 12 h×6 h. DEGs are defined as an absolute value of log 2 fold change between two groups (LFC)>1 and false discovery rate (FDR)<0.05. […]

[1] = RNA-seq median expression, 12 h

B1: Amblyomin-X: recombinant Kunitz type protein identified in a cDNA library of Amblyomma sculptum tick salivary glands (protein)
chain: MRQLAVLALVIFTGMCVESQSANSKAVCNLPKLAGDETCSNKTEIRWYYNGTACEAFIFKGCGGNDNNFDRVDDCQRLCEEQTHFHFESPKLICFKVQDYWILNDIMKKNLTGISLKSEEEDADSGEID
modifications: Amblyomin-X
notes: recombinant Kunitz type protein identified in a cDNA library of Amblyomma sculptum tick salivary glands
- SELE expression, average (6 h after treatment): 7.15 CPM
- SELE expression, median (6 h after treatment): 4.56 CPM
- SELE expression, average (12 h after treatment): 4.85 CPM
- SELE expression, median (12 h after treatment): 5.63 CPM
- median2, gene ACTN1 (RNA-seq median expression, 6 h): 153.3001 CPM
- median2, gene BCL3 (RNA-seq median expression, 6 h): 46.57 CPM
- median2, gene BIRC3 (RNA-seq median expression, 6 h): 47.3192 CPM
- median2, gene CAD (RNA-seq median expression, 6 h): 52.82 CPM
- median2, gene CCL2 (RNA-seq median expression, 6 h): 171.527 CPM
- median2, gene CDO1 (RNA-seq median expression, 6 h): 22.45 CPM
- median2, gene CTSL (RNA-seq median expression, 6 h): 34.0817 CPM
- median2, gene CXCL6 (RNA-seq median expression, 6 h): 6.189 CPM
- median2, gene DDX58 (RNA-seq median expression, 6 h): 22.55 CPM
- median2, gene F12 (RNA-seq median expression, 6 h): 4.891 CPM
- median2, gene FOSL1 (RNA-seq median expression, 6 h): 14.18 CPM
- median2, gene FSCN1 (RNA-seq median expression, 6 h): 97.19 CPM
- median2, gene HMOX1 (RNA-seq median expression, 6 h): 99.11 CPM
- median2, gene HSPA6 (RNA-seq median expression, 6 h): 15.93 CPM
- median2, gene IFI35 (RNA-seq median expression, 6 h): 48.07 CPM
- median2, gene IFIH1 (RNA-seq median expression, 6 h): 13.29 CPM
- median2, gene IFIT1 (RNA-seq median expression, 6 h): 28.13 CPM
- median2, gene IL1B (RNA-seq median expression, 6 h): 20.23 CPM
- median2, gene IL1RN (RNA-seq median expression, 6 h): 120.3935 CPM
- median2, gene IL13RA1 (RNA-seq median expression, 6 h): 29.3 CPM
- median2, gene IRF9 (RNA-seq median expression, 6 h): 72.39 CPM
- median2, gene ITGA1 (RNA-seq median expression, 6 h): 7.06 CPM
- median2, gene MYH1 (RNA-seq median expression, 6 h): 0 CPM
- median2, gene MYH3 (RNA-seq median expression, 6 h): 1.418 CPM
- median2, gene MYL2 (RNA-seq median expression, 6 h): 0 CPM
- median2, gene MYLPF (RNA-seq median expression, 6 h): 1.314 CPM
- median2, gene NTNG1 (RNA-seq median expression, 6 h): 1.059 CPM
- median2, gene OAS2 (RNA-seq median expression, 6 h): 34.26 CPM
- median2, gene PARP9 (RNA-seq median expression, 6 h): 16.34 CPM
- median2, gene PER1 (RNA-seq median expression, 6 h): 32.08 CPM
- median2, gene PIK3R6 (RNA-seq median expression, 6 h): 5.162 CPM
- median2, gene RUNX1 (RNA-seq median expression, 6 h): 8.949 CPM
- median2, gene SAA1 (RNA-seq median expression, 6 h): 7.68 CPM
- median2, gene SELP (RNA-seq median expression, 6 h): 22.34 CPM
- median2, gene SLPI (RNA-seq median expression, 6 h): 230.2294 CPM
- median2, gene SOCS3 (RNA-seq median expression, 6 h): 12.21 CPM
- median2, gene STAT1 (RNA-seq median expression, 6 h): 76.48 CPM
- median2, gene TAT (RNA-seq median expression, 6 h): 1.235 CPM
- median2, gene TEAD4 (RNA-seq median expression, 6 h): 21.64 CPM
- median2, gene THBS1 (RNA-seq median expression, 6 h): 43.5 CPM
- median2, gene TLR2 (RNA-seq median expression, 6 h): 59.58 CPM
- median2, gene TREM1 (RNA-seq median expression, 6 h): 31.36 CPM
- median3, gene ACTN1 [1]: 165.3412 CPM
- median3, gene BCL3 [1]: 39.97 CPM
- median3, gene BIRC3 [1]: 47.38 CPM
- median3, gene CAD [1]: 50.34 CPM
- median3, gene CCL2 [1]: 418.8519 CPM
- median3, gene CDO1 [1]: 12.71 CPM
- median3, gene CTSL [1]: 33.8889 CPM
- median3, gene CXCL6 [1]: 1.108 CPM
- median3, gene DDX58 [1]: 31.9 CPM
- median3, gene F12 [1]: 8.671 CPM
- median3, gene FOSL1 [1]: 11.46 CPM
- median3, gene FSCN1 [1]: 152.3466 CPM
- median3, gene HMOX1 [1]: 105.6427 CPM
- median3, gene HSPA6 [1]: 53.79 CPM
- median3, gene IFI35 [1]: 66.19 CPM
- median3, gene IFIH1 [1]: 27.95 CPM
- median3, gene IFIT1 [1]: 34.11 CPM
- median3, gene IL1B [1]: 10.07 CPM
- median3, gene IL1RN [1]: 118.3058 CPM
- median3, gene IL13RA1 [1]: 23.98 CPM
- median3, gene IRF9 [1]: 85.24 CPM
- median3, gene ITGA1 [1]: 6.155 CPM
- median3, gene MYH1 [1]: 0 CPM
- median3, gene MYH3 [1]: 1.817 CPM
- median3, gene MYL2 [1]: 0 CPM
- median3, gene MYLPF [1]: 1.629 CPM
- median3, gene NTNG1 [1]: 0.744 CPM
- median3, gene OAS2 [1]: 82.84 CPM
- median3, gene PARP9 [1]: 18.56 CPM
- median3, gene PER1 [1]: 39.99 CPM
- median3, gene PIK3R6 [1]: 4.433 CPM
- median3, gene RUNX1 [1]: 9.266 CPM
- median3, gene SAA1 [1]: 11.7 CPM
- median3, gene SELP [1]: 20.58 CPM
- median3, gene SLPI [1]: 620.7695 CPM
- median3, gene SOCS3 [1]: 11.57 CPM
- median3, gene STAT1 [1]: 83.64 CPM
- median3, gene TAT [1]: 9.52 CPM
- median3, gene TEAD4 [1]: 39.12 CPM
- median3, gene THBS1 [1]: 31.32 CPM
- median3, gene TLR2 [1]: 93.64 CPM
- median3, gene TREM1 [1]: 24.25 CPM
- logFC6, gene ACTN1 (RNA-seq, 6 h after treatment): 1.003
- logFC6, gene BCL3 (RNA-seq, 6 h after treatment): 1.936
- logFC6, gene BIRC3 (RNA-seq, 6 h after treatment): 1.275
- logFC6, gene CAD (RNA-seq, 6 h after treatment): 1.227
- logFC6, gene CCL2 (RNA-seq, 6 h after treatment): 2.79
- logFC6, gene CDO1 (RNA-seq, 6 h after treatment): −1.785
- logFC6, gene CTSL (RNA-seq, 6 h after treatment): 1.376
- logFC6, gene CXCL6 (RNA-seq, 6 h after treatment): 5.945
- logFC6, gene DDX58 (RNA-seq, 6 h after treatment): 1.434
- logFC6, gene F12 (RNA-seq, 6 h after treatment): 2.559
- logFC6, gene FOSL1 (RNA-seq, 6 h after treatment): 4.578
- logFC6, gene FSCN1 (RNA-seq, 6 h after treatment): 1.457
- logFC6, gene HMOX1 (RNA-seq, 6 h after treatment): 1.443
- logFC6, gene HSPA6 (RNA-seq, 6 h after treatment): 5.376
- logFC6, gene IFI35 (RNA-seq, 6 h after treatment): 1.513
